According to publication PMC5824358:

Biological target: T1, 65K C-RRM WT untagged (UniProt Q96LT9 381-516)
T1 sequence: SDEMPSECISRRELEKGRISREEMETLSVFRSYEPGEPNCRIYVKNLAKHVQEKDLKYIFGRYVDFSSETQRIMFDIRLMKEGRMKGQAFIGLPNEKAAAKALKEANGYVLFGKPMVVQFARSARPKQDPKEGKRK
Experiment: NMR chemical shift perturbation

Binder: CCCGCCUACUUUGCGGG (structured_RNA) [U12 oligo]
- binding result: binds
